Results reported in the supplement of paper PMC7877785.
± gives the uncertainty stated by the source.

Assay: self-splicing fitness, log relative to wild type (ln ratio); higher = more splicing; Tetrahymena group I intron in knt gene, E. coli kanamycin selection, DiMSum; sequences stand for … in CUCUCU…GGAGGGAAAAGUUAUCAGGCAUGCACCUGGUAGCUAGUCUUUAAACCAAUAGAUUGCAUCGGUUUAAAAGGCAAGACCGUCAAAUUGCGGGAAAGGGGUCAACAGCCGUUCAGUACCAAGUCUCAGGGGAAACUUUGAGAUGGCCUUGCAAAGGGUAUGGUAAUAAGCUGACGGACAUGGUCCUAACCACGCAGCCAAGUCCUAAGUCAACAGAUCUUCUGUUGAUAUGGAUGCAGUUCACAGACUAAAUGUCGGUCGGGGAAGAUGUAUUCUUCUCAUAAGAUAUAGUCGGACCUCUCCUUAAUGGGAGCUAGCGGAUGAAGUGAUGCAACACUGGAGCCGCUGGGAACUAAUUUGUAUGCGAAAGUAUAUUGAUUAGUUUUGGAGUACUCGUGGUCG
Summary of the method: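 Fitness was computed with DiMSum as the error-weighted combination of replicate fold changes, kanamycin versus none, each normalised to wild type. The library randomised all eight intron nucleotides of the P1ex region, with the intron placed in the knt kanamycin-resistance gene on pET-22b(+) in E. coli BL21(DE3). Six replicate transformations were grown overnight at 37°C or 30°C on LB agar with or without 25 μg/mL kanamycin, plus 100 μg/mL carbenicillin, 50 μM IPTG and 0.2% rhamnose. Pooled colonies were amplicon-sequenced on an Illumina HiSeq 2500.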

| Sequence | self-splicing fitness (ln) (30 °C) | self-splicing fitness (ln) (37 °C) |
| --- | --- | --- |
| AGGAAGCAAUAUUACGACAU | -0.63 ± 0.014 | -0.543 ± 0.033 |
| AGGAAGCAAUAUUACGACGG | -1.98 ± 0.17 | -0.95 ± 0.23 |
| AGGAAGCAAUAUUACGAGAG | -3.03 ± 0.14 | -2.29 ± 0.17 |
| AGGAAGCAAUAUUACGAUUA | -1.47 ± 0.08 | -1.21 ± 0.069 |
| AGGAAGCAAUAUUACGAUUC | -1.41 ± 0.15 | -2.53 ± 0.18 |
| AGGAAGCAAUAUUACGCACA | -0.546 ± 0.13 | 0.104 ± 0.19 |
| AGGAAGCAAUAUUACGCCAC | -2.13 ± 0.24 | -2.64 ± 0.41 |
| AGGAAGCAAUAUUACGCGGC | – | -1.98 ± 0.44 |
| AGGAAGCAAUAUUACGCUAA | -1.19 ± 0.13 | -1.89 ± 0.27 |
| AGGAAGCAAUAUUACGCUCA | -0.332 ± 0.13 | -0.339 ± 0.16 |
| AGGAAGCAAUAUUACGCUGG | -3.46 ± 0.38 | -1.08 ± 0.27 |
| AGGAAGCAAUAUUACGCUUC | -2.44 ± 0.28 | – |
| AGGAAGCAAUAUUACGGAGC | -2.78 ± 0.21 | -1.61 ± 0.3 |
| AGGAAGCAAUAUUACGGGCA | -1.55 ± 0.21 | -1.13 ± 0.23 |
| AGGAAGCAAUAUUACGUAGA | -1.86 ± 0.099 | -2.42 ± 0.15 |
| AGGAAGCAAUAUUACGUGGA | -3.05 ± 0.19 | -1.16 ± 0.13 |
| AGGAAGCAAUAUUACGUGGC | – | -3.3 ± 0.43 |
| AGGAAGCAAUAUUACGUGUU | -3.8 ± 0.21 | -0.935 ± 0.14 |
| AGGAAGCAAUAUUACGUUAC | -2.66 ± 0.14 | -3.18 ± 0.28 |
| AGGAAGCAAUAUUACGUUAU | -3.44 ± 0.18 | -1.6 ± 0.17 |
| AGGAAGCAAUAUUACGUUCC | -2.96 ± 0.39 | -2.59 ± 0.48 |
| AGGCAGCAAUAUUACGAAGG | -1.9 ± 0.22 | -1.56 ± 0.27 |
| AGGCAGCAAUAUUACGACGG | -2.49 ± 0.16 | -0.746 ± 0.22 |
| AGGCAGCAAUAUUACGAGCC | -2 ± 0.14 | -1.4 ± 0.21 |
| AGGCAGCAAUAUUACGAGUC | -2.29 ± 0.14 | -2.34 ± 0.2 |
| AGGCAGCAAUAUUACGCAUC | -3.99 ± 0.19 | -1.04 ± 0.11 |

| Sequence | self-splicing fitness (ln) (30 °C) | self-splicing fitness (ln) (37 °C) |
| --- | --- | --- |
| AGGCAGCAAUAUUACGCGAG | -2.49 ± 0.13 | -1.12 ± 0.13 |
| AGGCAGCAAUAUUACGGAAU | -1.67 ± 0.057 | -0.844 ± 0.084 |
| AGGCAGCAAUAUUACGGAUC | -2.19 ± 0.1 | -0.495 ± 0.099 |
| AGGCAGCAAUAUUACGGAUU | -1.08 ± 0.077 | 0.356 ± 0.098 |
| AGGCAGCAAUAUUACGGCUC | -0.958 ± 0.17 | -0.371 ± 0.19 |
| AGGCAGCAAUAUUACGGGUU | -3.33 ± 0.22 | -1.01 ± 0.12 |
| AGGCAGCAAUAUUACGGUCC | -1.61 ± 0.15 | -1.64 ± 0.26 |
| AGGCAGCAAUAUUACGGUGA | -1.37 ± 0.14 | -0.711 ± 0.11 |
| AGGCAGCAAUAUUACGGUGG | -3.05 ± 0.16 | -2.88 ± 0.23 |
| AGGCAGCAAUAUUACGUAGA | -2.33 ± 0.15 | -0.171 ± 0.11 |
| AGGCAGCAAUAUUACGUAUA | -3.08 ± 0.15 | -1.56 ± 0.12 |
| AGGCAGCAAUAUUACGUGCU | -2.46 ± 0.12 | -1.5 ± 0.1 |
| AGGCAGCAAUAUUACGUUGC | -4.18 ± 0.36 | -2.13 ± 0.29 |
| AGGGAGCAAUAUUACGAUAA | – | -2.23 ± 0.42 |
| AGGGAGCAAUAUUACGAUCG | -2.68 ± 0.27 | -2.19 ± 0.46 |
| AGGGAGCAAUAUUACGAUGG | – | -1.29 ± 0.32 |
| AGGGAGCAAUAUUACGCAGU | -2.41 ± 0.47 | -1.44 ± 0.33 |
| AGGGAGCAAUAUUACGCCAA | – | -2.67 ± 0.38 |
| AGGGAGCAAUAUUACGCGAA | -1.94 ± 0.4 | -1.48 ± 0.29 |
| AGGGAGCAAUAUUACGCUCG | -2.31 ± 0.27 | -2.12 ± 0.3 |
| AGGGAGCAAUAUUACGGCAC | – | -1.77 ± 0.42 |
| AGGGAGCAAUAUUACGUACU | -1.74 ± 0.26 | -0.673 ± 0.35 |
| AGGGAGCAAUAUUACGUCGC | -1.42 ± 0.34 | – |
| AGGGAGCAAUAUUACGUCGG | – | -1.52 ± 0.38 |
| AGGGAGCAAUAUUACGUGAA | -3.18 ± 0.32 | -2.53 ± 0.3 |
